From patent publication US8987201B2, “Black bear parathyroid hormone and methods of using black bear parathyroid hormone” (Michigan Technological University, priority 2009, dated 2015)
Marks after values point to notes of the source that are not given here. No end group written: not given here.

Key:
[1] = system: rats; details: long-term usage; cited from earlier work
[2] = system: ovariectomized rats; details: cited from earlier work
[3] = Serum calcium levels in the rat OVX dose response study; format: in vivo; details: OVX rats; not significant at the p<0.05 level
Procedure: Ninety female, 3-month old Sprague-Dawley rats were obtained. Eighty (80) of the rats were ovariectomized (OVX) and ten (10) underwent a sham OVX procedure (sham OVX) in which the ovaries were left in the animal. The OVX animals were randomly assigned into groups of ten for further experiments.
Following the actual or sham OVX procedure, all animals were untreated for 6 weeks to allow bone loss. After the 6 week period of bone loss, groups of animals were injected for a six- or eight-week period (daily for five days per week) with vehicle (saline) or 3, 10, or 30 μg/kg bear or human PTH1-34. […] The sham OVX group as well as one group of actual OVX rats were euthanized at six weeks while the remaining animals were euthanized at fourteen weeks following the OVX procedure. Samples were obtained from the euthanized animals for further analysis.

[4] = system: Male Swiss-Webster mice; test: Cortical bone mechanical properties of the femur (3-point bending); format: in vivo, mouse; details: 2.5 nmol/kg, 8 weeks
Description: (§1) All handling procedures and experiments were approved by the Michigan Technological University Institutional Animal Care and Use Committees. Male Swiss-Webster mice were obtained from a commercial breeder (Harlan, Indianapolis, Ind.). All animals were maintained on a 12-h light/12-h dark cycle, and were permitted free access to water and food containing 0.95% calcium (Purina Rodent Diet #5001).
In the first experiment, 11 wk old mice received daily (5 days/week) subcutaneous injections of 2.5 nmol/kg PTH 1-34 (hPTH 1-34 or bbPTH 1-34) or acidic saline vehicle (0.15 M NaCl+0.001 N HCl) for 8 weeks (n=10 mice/group). In the second experiment, 12 wk old mice received daily (5 days/week) subcutaneous injections of 2.5 nmol/kg PTH 1-84 (hPTH 1-84 or bbPTH 1-84) or acidic saline vehicle for 8 weeks (n=10 mice/group). […]
Left femurs were loaded to failure in 3-point bending on an Instron mechanical testing system (Model #8872, Canton, Mass.) at a rate of 1 mm/min. […] Ultimate load was calculated using the load-deformation data from testing.
All bone geometrical, architectural, and mineral properties were normalized by body mass to account for potential variation in animal size (31-33). Trabecular bone properties quantified by micro-computed tomography were compared by ANOVA between vehicle, bear, and human PTH-treated mice within each study (PTH 1-34 or PTH 1-84). […]

[5] = system: ovariectomized (OVX) Sprague-Dawley rats; test: In vivo effects of human PTH1-84 and bear PTH1-84 in ovariectomized rats; set-up: species or system rat; details: 2.5 nmol/kg s.c., eight weeks
Procedure: Thirty female, 2.5-month old Sprague-Dawley rats were ovariectomized (OVX) at the commercial breeding facility The OVX animals were randomly assigned into 3 groups of 10 animals per group for further experiments.
Six weeks after the OVX procedure, the rats were injected subcutaneously for an eight-week period (daily for five days per week) with vehicle (saline) or 2.5 nmol/kg bear or human PTH1-84. Animals were euthanized 24 hours after the last injection. Samples were obtained from the euthanized animals for further analysis.
Femur bending strength and proximal tibia trabecular architecture were investigated as described in Example 12.

[6] = system: Male Swiss-Webster mice; test: Cortical bone dynamic histomorphometry in the femur (calcein labels); format: in vivo, mouse; details: femoral midshaft, 2.5 nmol/kg s.c., 8 weeks, SD in parentheses
Description: as §1
(§2) In the first experiment, 11 wk old mice received daily (5 days/week) subcutaneous injections of 2.5 nmol/kg PTH 1-34 (hPTH 1-34 or bbPTH 1-34) or acidic saline vehicle (0.15 M NaCl+0.001 N HCl) for 8 weeks (n=10 mice/group). In the second experiment, 12 wk old mice received daily (5 days/week) subcutaneous injections of 2.5 nmol/kg PTH 1-84 (hPTH 1-84 or bbPTH 1-84) or acidic saline vehicle for 8 weeks (n=10 mice/group). All PTH- and vehicle-treated animals received subcutaneous injections of calcein at a dosage of 10 mg/kg on days 12 and 3 before death to label mineralizing bone surfaces. Twenty-four hours following the last treatment injection, mice were sacrificed by carbon dioxide asphyxiation. Right femurs were fixed in 10% neutral buffered formalin. Left femurs were wrapped in 0.15M saline soaked gauze and stored at −20 deg C. Left tibias were stored in 70% ethanol at 4 deg C.
(§3) Following the bending test, the left femoral diaphyses were ashed in a furnace to determine mineral content (ash fraction). Right femoral diaphyses were embedded in methyl methacrylate and sectioned with a diamond saw to expose the midshaft cross-section. Images of the midshaft cross-sections were captured using a digital camera (Spot Insight QE, Diagnostic Instruments Inc., Sterling Heights, Mich.), and Scion Image analysis software (Scion Corporation, Frederick, Md.) was used to calculate the periosteal area (Ps.Ar), cortical area (Ct.Ar), and endosteal area (Es.Ar) for each sample. Cortical bone thickness (Ct.Th) was calculated in 0.1 mm increments for each anatomical quadrant and for the entire cross-section using image analysis software (Bioquant Osteo, Nashville, Tenn.). Thin sections from the midshaft of the right femur were ground to a thickness of 50 μm and mounted on glass slides. Images of calcein labels were captured at 100× magnification and periosteal and endosteal mineral apposition rates (Ps.MAR and Es.MAR, respectively) and mineralizing surfaces (Ps.MS/BS and Es.MS/MS) were quantified (Bioquant) for each femur.
(§4) All bone geometrical, architectural, and mineral properties were normalized by body mass to account for potential variation in animal size (31-33). Trabecular bone properties quantified by micro-computed tomography were compared by ANOVA between vehicle, bear, and human PTH-treated mice within each study (PTH 1-34 or PTH 1-84). The microCT parameters were not directly compared between the PTH 1-34 and PTH 1-84 studies because analyses were conducted on different microCT machines. For all other bone properties, all six experimental groups (from both the PTH 1-34 and PTH 1-84 studies) were compared with ANOVA and Fisher's PLSD. A significance of p<0.05 was used for all comparisons.

[7] = system: Male Swiss-Webster mice; test: Trabecular bone structure and mineralization in the proximal tibia (micro-computed tomography); format: in vivo, mouse; details: 8 weeks
Description: as §1, §2
Trabecular bone architecture and mineralization were evaluated in the left proximal tibial metaphysis (0.7 mm distal to the growth plate) using micro-computed tomography. Tibias from experiment 1 were scanned on a μCT35 scanner (Scanco Medical AG, Basserdorf, Switzerland) at 3.5 μm (high) resolution. Tibias from experiment 2 were scanned on a μCT40 scanner (Scanco Medical AG, Basserdorf, Switzerland) at 7 μm (high) resolution. Bones were scanned in 70% ethanol. Trabecular bone volume fraction (BV/TV, %), trabecular number (Tb.N, mm^−1), trabecular thickness (Tb.Th, m), trabecular separation (Tb.Sp, m), trabecular apparent mineral density (App.Mn.Dn, mgHA/cm^3) and trabecular tissue mineral density (Mat.Mn.Dn, mgHA/cm^3) were computed using the manufacturer's software.
as §4

[8] = system: human fetal osteoblasts (hFOB); test: Serum starvation cell death in human fetal osteoblasts (trypan blue); format: cell-based; details: 100 nM for 1 hour before serum starvation for 24 hours, preliminary studies, p<0.0001
Procedure: All PTH peptides used in the current study attenuated apoptotic signaling induced by serum starvation in vitro (FIG. 19). bbPTH 1-34 reduced apoptotic signaling in pre-osteoblastic cells more than human PTH (FIG. 19). Recently, we found similar results with preliminary studies in human fetal osteoblasts (hFOB). Serum starvation for 24 hours increased cell death in hFOB (confirmed via trypan blue staining), but pretreatment of hFOB cells with 100 nM PTH 1-34 or 1-84 for 1 hour before starvation reduced percent cell death (percentage change in cell death compared to vehicle pretreatment, hPTH 1-34: −18%, bbPTH 1-34: −25%, hPTH 1-84: −17%, bbPTH 1-84: −21%; p<0.0001; data not shown). […] However, although bbPTH 1-84 was less anti-apoptotic than bbPTH 1-34 and hPTH 1-34 in vitro (FIG. 19) it caused the greatest increases in cortical and trabecular bone mass in the in vivo studies (Table 1, Table 2).

[9] = system: Male Swiss-Webster mice; test: Cortical bone mineral content (ash fraction) and geometrical properties of the femur; format: in vivo, mouse; details: femoral midshaft, 2.5 nmol/kg s.c., 8 weeks, normalized by body mass, SD in parentheses
Description: as §1, §2, §3, §4

[10] = PTH 1-84 study: 12 wk old mice, 2.5 nmol/kg s.c., proximal tibia, normalized by body mass

Molecule: CC[C@H](C)[C@H](NC(=O)[C@H](CCC(=O)O)NC(=O)[C@H](CO)NC(=O)[C@@H](NC(=O)[C@@H](N)CO)C(C)C)C(=O)N[C@@H](CCC(N)=O)C(=O)N[C@@H](CC(C)C)C(=O)N[C@@H](CCSC)C(=O)N[C@@H](Cc1cnc[nH]1)C(=O)N[C@@H](CC(N)=O)C(=O)N[C@@H](CC(C)C)C(=O)NCC(=O)N[C@@H](CCCCN)C(=O)N[C@@H](Cc1cnc[nH]1)C(=O)N[C@@H](CC(C)C)C(=O)N[C@@H](CC(N)=O)C(=O)N[C@@H](CO)C(=O)N[C@@H](CCSC)C(=O)N[C@@H](CCC(=O)O)C(=O)N[C@@H](CCCN=C(N)N)C(=O)N[C@H](C(=O)N[C@@H](CCC(=O)O)C(=O)N[C@@H](Cc1c[nH]c2ccccc12)C(=O)N[C@@H](CC(C)C)C(=O)N[C@@H](CCCN=C(N)N)C(=O)N[C@@H](CCCCN)C(=O)N[C@@H](CCCCN)C(=O)N[C@@H](CC(C)C)C(=O)N[C@@H](CCC(N)=O)C(=O)N[C@@H](CC(=O)O)C(=O)N[C@H](C(=O)N[C@@H](Cc1cnc[nH]1)C(=O)N[C@@H](CC(N)=O)C(=O)N[C@@H](Cc1ccccc1)C(=O)O)C(C)C)C(C)C [LY333334]
- osteosarcoma in rats [1]: generates osteosarcoma

Molecule: bovine PTH 1-34 (AVSEIQFMHNLGKHLSSMERVEWLRKKLQDVHNF; Parathyroid hormone; UniProt P01268 32-65, looked up, fragment) [1-34 fragment of bovine PTH]
- greater bone formation response than to rat PTH 1-34 ([2]; daily 25 μg injections): 25%
- greater increase in bone volume fraction during treatment ([2]; injection): 37%

Molecule: SVSEIQFMHNLGKHLSSMERVEWLRKKLQDVHNF [bbPTH 1-34, black bear PTH 1-34]
- serum calcium levels compared to human PTH1-34 [3]: lower

B1: black bear PTH1-84 (protein, listed as Ursus americanus)
chain: SVSEIQFMHNLGKHLSSMERVEWLRKKLQDVHNFVALGAPTAHRDGGSQRPQKKEDNVLVENHQKSLGEADKADVDVLTKAKSQ
- increase in bone strength (ultimate load of the femur), bear peptide compared to the corresponding human peptide [4]: significantly (p=0.032) greater
- increase of femoral ultimate load over vehicle treatment ([4]; only for this peptide): statistically significant
- bone volume fraction / trabecular bone volume [5]: equivalently increase
- increases in cortical bone strength compared to hPTH1-84 [5]: greater increases
- ultimate load of the femur compared to vehicle treatment [5]: significantly (p=0.013) increased
- Endosteal MAR [6]: 0.59 (0.42)
- Endosteal MS/BS [6]: 24.5 (17.2)
- Periosteal MAR [6]: 0.62 (0.33)
- Periosteal MS/BS [6]: 31.3 (22.5)
- BV/TV ([7]; PTH 1-84 study: 12 wk old mice, 2.5 nmol/kg s.c. daily 5 days/week, proximal tibia, normalized by body mass): 2.26 %/kg
- App. Mn. Dn [7, 10]: 3665 mgHA/(cm^3*kg)
- Mat. Mn. Dn. [7, 10]: 30552 mgHA/(cm^3*kg)
- Tb. N [7, 10]: 113.8 1/mm*kg
- Tb. Sp [7, 10]: 8.47 mm/kg
- Tb. Th [7, 10]: 1.38 mm/kg
- trabecular apparent mineral density compared to other treatments ([7]; mice, 2.5 nmol/kg, bbPTH 1-84 vs hPTH 1-84 p=0.019): highest
- trabecular bone volume fraction and apparent mineral density over vehicle treatment ([7]; mice, 2.5 nmol/kg, only this peptide): significantly increased over vehicle treatment
- bone volume fraction in the proximal tibia compared to hPTH 1-84 ([7]; mice, 2.5 nmol/kg, p=0.013): greater
- percentage change in cell death compared to vehicle pretreatment [8]: −21%
- Ct.Ar [9]: 31.7 (3.7) mm^2/kg
- Ct.Th [9]: 3.56 (0.42)^a mm/kg
- Es.Ar [9]: 26.6 (4.6) mm^2/kg
- Ps.Ar [9]: 58.3 (5.0)^a,b mm^2/kg
